Results on two molecules are retold here after patent publication US20250109177A1, “EVOLVED PROTEIN DEGRONS” (The Broad Institute, Inc., priority 2022, published 2025).

Where no end group is shown, it is not given here.

This experiment has as its target CRBN of HEK293T cells, with PT-179 (human) (UniProt Q96SW2). Kind of experiment: cell-based or functional assay.

Sequence of CRBN of HEK293T cells, with PT-179 (human) (Q96SW2 whole entry): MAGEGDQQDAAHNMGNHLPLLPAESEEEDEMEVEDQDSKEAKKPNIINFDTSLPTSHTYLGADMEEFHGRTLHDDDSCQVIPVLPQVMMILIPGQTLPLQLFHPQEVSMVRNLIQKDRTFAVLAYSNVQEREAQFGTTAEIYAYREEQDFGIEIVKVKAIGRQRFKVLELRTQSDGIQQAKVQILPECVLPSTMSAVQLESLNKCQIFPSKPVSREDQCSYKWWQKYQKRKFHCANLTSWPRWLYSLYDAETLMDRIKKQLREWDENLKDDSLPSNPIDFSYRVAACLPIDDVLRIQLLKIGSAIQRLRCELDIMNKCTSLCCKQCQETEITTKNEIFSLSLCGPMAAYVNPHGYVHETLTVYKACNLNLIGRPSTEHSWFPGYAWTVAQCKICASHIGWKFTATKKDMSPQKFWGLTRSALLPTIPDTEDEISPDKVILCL

LLLFCPICGFTCRQKGNLLRHINLHTGEKLFKYHLY-eGFP (designed binder, not shown: large carriers, cysteine pairing not given here) [SD40-eGFP (degron fused to the N-terminus of eGFP)] registered a DC50 of PT-179-induced degradation of degron-tagged eGFP in HEK293T cells of 5 nM.

B1: SD36-tagged eGFP (degron fused to the N-terminus of eGFP) (designed binder, not shown: large carriers)
chain: FNVLMVHKRSHTGELLLFCPICGFTCRQKGNLLRHINLHTGEKLFKYHLYNYACQRRDAL-eGFP
modifications: cysteine pairing not given here
The molecule B1 gave a DC50 of PT-179-induced degradation of degron-tagged eGFP in HEK293T cells of 14 nM.
